Measured values reported in PMC11527256.

Columns and labels:
K48-linked tri-UB [1] = molecular target: K48-linked tri-UB (UniProt P0CG48); experiment: ITC
K48-linked di-UB [2] = molecular target: K48-linked di-UB (UniProt P0CG48); experiment: ITC
K48-linked tetra-UB [3] = molecular target: K48-linked tetra-UB (UniProt P0CG48); experiment: ITC
K48-linked tri-UB [4] = molecular target: K48-linked tri-UB (UniProt P0CG48); experiment: SEC-SAXS; complexes assembled at 170 μM, 1:1, in 20 mM HEPES pH 8.0, 150 mM NaCl, 1 mM TCEP; Superdex 75 10/300 increase coupled to SAXS (ESRF BM29)
K48-linked di-UB [5] = molecular target: K48-linked di-UB (UniProt P0CG48); experiment: as above
K48-linked tetra-UB [6] = molecular target: K48-linked tetra-UB (UniProt P0CG48); experiment: as above
K63-linked tri-UB = K63-linked tri-UB (UniProt P0CG48); experiment: ITC
K48-linked penta-UB = K48-linked penta-UB (UniProt P0CG48); experiment: ITC
K63-linked tetra-UB = K63-linked tetra-UB (UniProt P0CG48); experiment: ITC
K63-linked penta-UB = K63-linked penta-UB (UniProt P0CG48); experiment: ITC
K63-linked di-UB = K63-linked di-UB (UniProt P0CG48); experiment: ITC

Row | Substance | Kd (K48-linked tri-UB [1]) [nM] | dH (K48-linked tri-UB [1]) [kcal/mol] | stoichiometry N (K48-linked tri-UB [1]) | Kd (K48-linked di-UB [2]) [nM] | dH (K48-linked di-UB [2]) [kcal/mol] | stoichiometry N (K48-linked di-UB [2]) | Kd (K48-linked tetra-UB [3]) [nM] | dH (K48-linked tetra-UB [3]) [kcal/mol] | stoichiometry N (K48-linked tetra-UB [3]) | further results
1 | Cdu1^CA M149A/M153A variant (from UniProt B0B9A0 130-401) (enzyme) | 1780 | 6.4 | 1.01 | 2910 | 1.89 | 0.98 | 1240 | 10.9 | 0.95 | –
2 | Cdu1^CA Q384A/A385R variant (from UniProt B0B9A0 130-401) (enzyme) | 1650 | 7.7 | 1.04 | 3440 | 3.89 | 0.96 | 1420 | 7.86 | 1.14 | –
3 | Cdu1^CA, catalytically inactive Cdu1(130-401) with C345 mutated to Ala (from UniProt B0B9A0 130-401) (enzyme) | 800 | 7.05 | 1.01 | 2580 | 3.67 | 1.02 | 310 | 9.63 | 0.99 | stoichiometry N (K48-linked tri-UB [4]): 1; stoichiometry N (K48-linked di-UB [5]): 1; stoichiometry N (K48-linked tetra-UB [6]): 1; Kd (K63-linked tri-UB): 3010 nM; dH (K63-linked tri-UB): 7.34 kcal/mol; stoichiometry N (K63-linked tri-UB): 1.24; Kd (K48-linked penta-UB): 280 nM; dH (K48-linked penta-UB): 10 kcal/mol; stoichiometry N (K48-linked penta-UB): 0.99; Kd (K63-linked tetra-UB): 4470 nM; dH (K63-linked tetra-UB): 9.93 kcal/mol; stoichiometry N (K63-linked tetra-UB): 1.6; Kd (K63-linked penta-UB): 6560 nM; dH (K63-linked penta-UB): 10.9 kcal/mol; stoichiometry N (K63-linked penta-UB): 2.3; Kd (K63-linked di-UB): 2520 nM; dH (K63-linked di-UB): 5.99 kcal/mol; stoichiometry N (K63-linked di-UB): 0.92
